Results published in US20190111080A1 (PRECIGEN, published 2019).

B1: EGFRvIII CAR (MR1-1 scFv · CD8alpha 3x hinge&TM · 4-1BB · CD3ζ) (receptor)
chain: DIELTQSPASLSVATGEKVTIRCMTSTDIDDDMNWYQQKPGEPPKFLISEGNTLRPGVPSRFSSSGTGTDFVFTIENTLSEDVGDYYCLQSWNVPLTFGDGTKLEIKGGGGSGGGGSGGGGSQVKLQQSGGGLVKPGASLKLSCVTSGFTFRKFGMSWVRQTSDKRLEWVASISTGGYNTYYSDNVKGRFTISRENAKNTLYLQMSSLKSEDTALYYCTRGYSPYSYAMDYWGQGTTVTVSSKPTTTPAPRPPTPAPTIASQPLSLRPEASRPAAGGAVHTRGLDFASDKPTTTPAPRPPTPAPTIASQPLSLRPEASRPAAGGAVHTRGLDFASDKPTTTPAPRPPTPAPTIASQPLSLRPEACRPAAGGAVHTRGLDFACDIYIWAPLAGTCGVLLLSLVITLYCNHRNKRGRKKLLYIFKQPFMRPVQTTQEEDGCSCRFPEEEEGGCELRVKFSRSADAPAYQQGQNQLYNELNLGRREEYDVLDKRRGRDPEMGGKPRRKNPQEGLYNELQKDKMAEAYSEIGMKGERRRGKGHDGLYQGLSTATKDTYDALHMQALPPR
notes: Expressed on human T cells; also called MR1-1 CAR CD8-3×
B2: EGFRvIII CAR (MR1-1 scFv · CD8alpha 4x hinge&TM · 4-1BB · CD3ζ) (receptor)
chain: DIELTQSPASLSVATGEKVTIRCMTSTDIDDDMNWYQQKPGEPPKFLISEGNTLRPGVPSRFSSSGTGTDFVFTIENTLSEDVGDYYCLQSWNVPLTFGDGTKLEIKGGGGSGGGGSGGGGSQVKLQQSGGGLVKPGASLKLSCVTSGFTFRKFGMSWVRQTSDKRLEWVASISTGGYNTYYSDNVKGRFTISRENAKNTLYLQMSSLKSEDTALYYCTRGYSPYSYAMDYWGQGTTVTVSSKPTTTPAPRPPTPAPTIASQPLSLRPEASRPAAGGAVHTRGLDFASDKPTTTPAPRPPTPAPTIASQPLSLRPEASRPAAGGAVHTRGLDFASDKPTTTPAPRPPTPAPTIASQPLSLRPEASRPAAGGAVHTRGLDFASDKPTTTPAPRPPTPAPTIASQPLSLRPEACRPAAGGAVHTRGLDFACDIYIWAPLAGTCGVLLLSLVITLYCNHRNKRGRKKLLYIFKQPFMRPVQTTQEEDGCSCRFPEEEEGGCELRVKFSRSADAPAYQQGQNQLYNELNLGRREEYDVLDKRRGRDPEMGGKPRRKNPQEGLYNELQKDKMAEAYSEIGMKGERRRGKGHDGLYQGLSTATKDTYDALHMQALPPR
notes: Expressed on human T cells; also called MR1-1 CAR CD8-4×

Biological target: T1, recombinant EGFRvIII/Fc protein (UniProt P00533 25-645)
T1 construct: Staining reagent for flow cytometry; not shown: Fc part not described
Experiment: flow cytometry, CAR T cells stained with recombinant EGFRvIII/Fc, day 1
Description: Briefly, EGFRvIII-specific CAR vectors were introduced into via electroporation, using a Sleeping Beauty-based transposon system to mediate genomic integration of the transposons. On day 0, PBMC were mixed with CAR transposon and SB transposase and electroporated. The following day (day1) cells count and viability were measured followed by flow cytometry to quantify CAR expression. CAR-T cells were stimulated by co-culture with either γ-irradiated) or mitomycin C treated AaPCs. The AaPC cells used were K562 cell line expressing EGFRvIII antigen. EGFRvIII-CAR-T cells were expanded ex vivo by once weekly stimulation with the AaPCs. Cultures were maintained in media supplemented with IL-2 (and/or IL-21. EGFRvIII-specific CAR expression was measured using recombinant EGFRvIII/Fc protein staining as detected by multi-parameter flow cytometry.

| Binder | binding result |
| --- | --- |
| B1 | binds |
| B2 | binds |
